Protein stability index data for 94 variants are collected here from the supplement of paper PMC10567573.

The chains are these.
B1: TRAF3IP2 (parent)
chain: PGQPLPGASVRGLHPVQKVILNYP
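Note: lentivirally expressed fusions sorted by FACS into six bins by GFP to DsRed ratio, PSI derived from sequencing read proportions per bin multiplied by bin number.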

This series covers variants of B1. Put plainly: protein stability index of a GFP-peptide fusion (GPS, HEK-293T) (PSI 1-6); higher = more stable. The following applies: c terminus: a fixed tail appended.
Consider PGQPLPGASVRGLHPVQKVILNTP [Y23T], for which the protein stability index was found to be 3.43.
PGQPLPGASVRGLHPVQKVILNIP [Y23I]: the protein stability index came to 3.19.
The value for PGQPLPGASVRGLHPVQKVILNWP [Y23W] was 2.52; that for PGQPLPGASVRGLHPVQKVILNPP [Y23P] was 4.11.
As for PGQPLPGASVRGLHPVQKVILNFP [Y23F], the figure is 3.45; as for PGQPLPGASVRGLHPVQKVILNKP [Y23K], 4.43; as for PGQPLPGASVRGLHPVQKVILNNP [Y23N], 3.63.
As for PGQPLPGASVRGLHPVQKVILNLP [Y23L], the figure is 2.71; as for PGQPLPGASVRGLHPVQKVILNSP [Y23S], 4.02.
With PGQPLPGASVRGLHPVQKVILNDP [Y23D], the protein stability index stood at 4.72.
On to PGQPLPGASVRGLHPVQKVILNGP [Y23G], for which the protein stability index was 3.71.
On to PGQPLPGASVRGLHPVQKVILNQP [Y23Q], for which the protein stability index turned out to be 4.07.
The value for PGQPLPGASVRGLHPVQKVILNCP [Y23C] was 3.42.
Regarding PGQPLPGASVRGLHPVQKVILNVP [Y23V], the protein stability index stood at 3.26.
As for PGQPLPGASVRGLHPVQKVILNAP [Y23A], the figure is 3.9; as for PGQPLPGASVRGLHPVQKVILNHP [Y23H], 3.95; as for PGQPLPGASVRGLHPVQKVILNEP [Y23E], 3.86.
As for PGQPLPGASVRGLHPVQKVILNRP [Y23R], the figure is 3.5; as for PGQPLPGASVRGLHPVQKVILNMP [Y23M], 3.36; as for PGQPLPGASVRGLHPVQKVIQNYP [L21Q], 3.79.
Turning to PGQPLPGASVRGLHPVQKVINNYP [L21N], the protein stability index was determined as 3.6.
Turning to PGQPLPGASVRGLHPVQKVIPNYP [L21P], the protein stability index was 3.66.
As for PGQPLPGASVRGLHPVQKVITNYP [L21T], the figure is 3.71; as for PGQPLPGASVRGLHPVQKVICNYP [L21C], 3.23.
As for PGQPLPGASVRGLHPVQKVIRNYP [L21R], the protein stability index is 2.76.
The value for PGQPLPGASVRGLHPVQKVIGNYP [L21G] was 3.64; that for PGQPLPGASVRGLHPVQKVIYNYP [L21Y] was 3.24.
As for PGQPLPGASVRGLHPVQKVIFNYP [L21F], the figure is 2.79.
For PGQPLPGASVRGLHPVQKVIINYP [L21I], the protein stability index came to 3.5.
Regarding PGQPLPGASVRGLHPVQKVIVNYP [L21V], the protein stability index amounted to 2.87.
In the case of PGQPLPGASVRGLHPVQKVISNYP [L21S], the protein stability index turned out to be 3.55.
Take PGQPLPGASVRGLHPVQKVIHNYP [L21H]: the protein stability index turned out to be 3.63.
With PGQPLPGASVRGLHPVQKVIENYP [L21E], the protein stability index was determined as 3.71.
Turning to PGQPLPGASVRGLHPVQKVIKNYP [L21K], the protein stability index amounted to 3.99.
The value for PGQPLPGASVRGLHPVQKVIDNYP [L21D] was 4.22; that for PGQPLPGASVRGLHPVQKVIWNYP [L21W] was 2.22; that for PGQPLPGASVRGLHPVQKVIMNYP [L21M] was 3.45.
Turning to PGQPLPGASVRGLHPVQKDILNYP [V19D], the protein stability index amounted to 3.23.
The value for PGQPLPGASVRGLHPVQKHILNYP [V19H] was 3.06.
The value for PGQPLPGASVRGLHPVQKYILNYP [V19Y] was 2.91; that for PGQPLPGASVRGLHPVQKKILNYP [V19K] was 3.32; that for PGQPLPGASVRGLHPVQKMILNYP [V19M] was 2.74.
As to PGQPLPGASVRGLHPVQKAILNYP [V19A], the protein stability index worked out at 3.
On to PGQPLPGASVRGLHPVQKTILNYP [V19T], for which the protein stability index stood at 3.59.
As for PGQPLPGASVRGLHPVQKFILNYP [V19F], the figure is 2.45.
Consider PGQPLPGASVRGLHPVQKPILNYP [V19P], for which the protein stability index worked out at 3.29.
PGQPLPGASVRGLHPVQKCILNYP [V19C]: the protein stability index was determined as 3.16.
The value for PGQPLPGASVRGLHPVQKNILNYP [V19N] was 3.59.
For the variant PGQPLPGASVRGLHPVQKLILNYP [V19L], the protein stability index came to 3.23.
PGQPLPGASVRGLHPVQKWILNYP [V19W]: the protein stability index turned out to be 3.38.
The value for PGQPLPGASVRGLHPVQKSILNYP [V19S] was 3.09.
The value for PGQPLPGASVRGLHPVQKEILNYP [V19E] was 4.06; that for PGQPLPGASVRGLHPVQKRILNYP [V19R] was 2.82; that for PGQPLPGASVRGLHPVQKQILNYP [V19Q] was 3.71.
PGQPLPGASVRGLHPVQKIILNYP [V19I]: the protein stability index stood at 3.26.
For the variant PGQPLPGASVRGLHPVEKVILNYP [Q17E], the protein stability index came to 2.95.
As for PGQPLPGASVRGLHPVIKVILNYP [Q17I], the figure is 2.24; as for PGQPLPGASVRGLHPVHKVILNYP [Q17H], 2.9.
For PGQPLPGASVRGLHPVKKVILNYP [Q17K], the protein stability index turned out to be 2.97.
As for PGQPLPGASVRGLHPVLKVILNYP [Q17L], the figure is 1.71; as for PGQPLPGASVRGLHPVCKVILNYP [Q17C], 2.52; as for PGQPLPGASVRGLHPVVKVILNYP [Q17V], 1.35.
Take PGQPLPGASVRGLHPVFKVILNYP [Q17F]: the protein stability index came to 1.26.
As for PGQPLPGASVRGLHPVRKVILNYP [Q17R], the figure is 3; as for PGQPLPGASVRGLHPVGKVILNYP [Q17G], 3.1.
PGQPLPGASVRGLHPVNKVILNYP [Q17N]: the protein stability index amounted to 2.8.
PGQPLPGASVRGLHPVSKVILNYP [Q17S]: the protein stability index turned out to be 2.77.
PGQPLPGASVRGLHPVYKVILNYP [Q17Y]: the protein stability index turned out to be 3.02.
As for PGQPLPGASVRGLHPVWKVILNYP [Q17W], the figure is 1.87; as for PGQPLPGASVRGLHPVPKVILNYP [Q17P], 3.51; as for PGQPLPGASVRGLHPVAKVILNYP [Q17A], 2.62.
The value for PGQPLPGASVRGLHPVTKVILNYP [Q17T] was 2.81; that for PGQPLPGASVRGLHPVMKVILNYP [Q17M] was 2.43; that for PGQPLPGASVRGLHPVQKVFLNYP [I20F] was 3.38.
As to PGQPLPGASVRGLHPVQKVMLNYP [I20M], the protein stability index amounted to 3.42.
As for PGQPLPGASVRGLHPVQKVVLNYP [I20V], the figure is 2.93; as for PGQPLPGASVRGLHPVQKVNLNYP [I20N], 3.72; as for PGQPLPGASVRGLHPVQKVALNYP [I20A], 3.89.
On to PGQPLPGASVRGLHPVQKVKLNYP [I20K], for which the protein stability index worked out at 4.01.
Consider PGQPLPGASVRGLHPVQKVQLNYP [I20Q], for which the protein stability index worked out at 3.87.
As for PGQPLPGASVRGLHPVQKVSLNYP [I20S], the figure is 4.67; as for PGQPLPGASVRGLHPVQKVHLNYP [I20H], 2.95; as for PGQPLPGASVRGLHPVQKVDLNYP [I20D], 3.84.
The value for PGQPLPGASVRGLHPVQKVCLNYP [I20C] was 3.25; that for PGQPLPGASVRGLHPVQKVTLNYP [I20T] was 3.03.
For the variant PGQPLPGASVRGLHPVQKVRLNYP [I20R], the protein stability index is 3.89.
On to PGQPLPGASVRGLHPVQKVPLNYP [I20P], for which the protein stability index was 3.36.
On to PGQPLPGASVRGLHPVQKVELNYP [I20E], for which the protein stability index amounted to 3.91.
As for PGQPLPGASVRGLHPVQKVLLNYP [I20L], the figure is 3.45.
Regarding PGQPLPGASVRGLHPVQCVILNYP [K18C], the protein stability index is 2.09.
PGQPLPGASVRGLHPVQWVILNYP [K18W]: the protein stability index worked out at 2.76.
As for PGQPLPGASVRGLHPVQFVILNYP [K18F], the figure is 2.3.
The value for PGQPLPGASVRGLHPVQNVILNYP [K18N] was 2.65; that for PGQPLPGASVRGLHPVQPVILNYP [K18P] was 2.99.
